Measured values as given in paper PMC7376022, “ARHGAP10, which encodes Rho GTPase-activating protein 10, is a novel gene for schizophrenia risk” (Translational Psychiatry, 2020).

Biological target: T1, GST-RhoA (p.Q63L) (UniProt P61586 1-193, p.Q63L)
T1 construct: RhoA, small GTPase, constitutively active mutant Q63L; also called GST-RhoA (Q63L); constitutively active RhoA; source: expressed in HEK293 cells
Experiment: pull-down; GST binding assay; GST-RhoA proteins as bait, GFP-tagged ARHGAP10 as prey; input and bound proteins on immunoblots, densitometry with Odyssey Clx; three independent experiments

T1 sequence (P61586 whole entry Q63L): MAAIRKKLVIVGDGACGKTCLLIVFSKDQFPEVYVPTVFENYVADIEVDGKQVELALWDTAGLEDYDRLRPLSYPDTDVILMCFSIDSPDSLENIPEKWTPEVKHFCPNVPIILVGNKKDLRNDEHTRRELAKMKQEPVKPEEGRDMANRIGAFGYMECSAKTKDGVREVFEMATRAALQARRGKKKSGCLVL

B1: GFP-tagged human ARHGAP10 (p.S490P) mutant (natural protein, UniProt A1A4S6 1-786, looked up)
chain: MGLQPLEFSDCYLDSPWFRERIRAHEAELERTNKFIKELIKDGKNLIAATKSLSVAQRKFAHSLRDFKFEFIGDAVTDDERCIDASLREFSNFLKNLEEQREIMALSVTETLIKPLEKFRKEQLGAVKEEKKKFDKETEKNYSLIDKHLNLSAKKKDSHLQEADIQVEQNRQHFYELSLEYVCKLQEIQERKKFEFVEPMLSFFQGMFTFYHQGHELAKDFNHYKMELQINIQNTRNRFEGTRSEVEELMNKIRQNPKDHKRASQFTAEGYLYVQEKRPAPFGSSWVKHYCMYRKAAKKFNMIPFEHRSGGKLGDGEVFFLKECTKRHTDSIDRRFCFDIEAADRPGVSLTMQAFSEEERKQWLEALGGKEALSHSFNTAIIPRPEGNAQLDKMGFTIIRKCISAVETRGINDQGLYRVVGVSSKVQRLLSMLMDVKTCNEVDLENSADWEVKTITSALKQYLRSLPEPLMTYELHGDFIVPAKSGSPEPRVNAIHFLVHKLPEKNKEMLDILVKHLTNVSNHSKQNLMTVANLGVVFGPTLMRPQEETVAALMDLKFQNIVVEILIENHEKIFRTPPDTTFPEPTCLSASPPNAPPRQSKRQGQRTKRPVAVYNLCLELEDGDNPYPSKEDTPTSSLDSLSSPSPVTTAVPGPPGPDKNHLLADGGSFGDWASTIPGQTRSSMVQWLNPQSPTTTSSNSAVTPLSPGSSPFPFSPPATVADKPPESIRSRKARAVYPCEAEHSSELSFEIGAIFEDVQTSREPGWLEGTLNGKRGLIPQNYVKLL
notes: also called ARHGAP10 (p.S490P)-GFP; source: expressed in HEK293 cells
With B1 the “band intensity percentage relative to the corresponding bait” value was 15.8%.
